{"source": "patent US20180009908", "key": {"[1]": {"target": "matuzumab HC_7.8_A + matuzumab LC (IgG1)", "test": "LCMS, IgG1 BsAb co-expression in HEK293F"}, "[2]": {"test": "LCMS, IgG1 BsAb co-expression; HCA (MetMAb) homodimer species"}, "[3]": {"target": "matuzumab HC_7.8_A + matuzumab LC (IgG1)", "test": "LCMS, IgG1 BsAb co-expression; HCA/HCB heterodimer carrying two LC1"}, "[4]": {"target": "matuzumab HC_7.8_A + matuzumab LC (IgG1)", "test": "LCMS, IgG1 BsAb co-expression; HCA/HCB heterodimer carrying two LC2"}, "[5]": {"target": "matuzumab HC_7.8.60_A + matuzumab LC (IgG1)", "test": "LCMS, IgG1 BsAb co-expression in HEK293F"}, "[6]": {"target": "matuzumab HC_7.8.60_A + matuzumab LC (IgG1)", "test": "LCMS, IgG1 BsAb co-expression; HCA/HCB heterodimer carrying two LC1"}, "[7]": {"target": "matuzumab HC_7.8.60_A + matuzumab LC (IgG1)", "test": "LCMS, IgG1 BsAb co-expression; HCA/HCB heterodimer carrying two LC2"}, "[8]": {"test": "LCMS, IgG1 BsAb co-expression; HCB (matuzumab) homodimer species"}}, "data": [{"protein": "MetMAb HC_7.8_B + MetMAb LC (IgG1) (protein) chain 1: EVQLVESGGGLVQPGGSLRLSCAASGYTFTSYWLHWVRKAPGKGLEWVGMIDPSNSDTRFNPEFKDRFTISADTSKNTAYLQMNSLRAEDTAVYYCATYRSYVTPLDYWGQGTLVTVSSASTKGPSVFPLAPSSKSTSGGTAALGCLVKDYFPEPVTVSWNSGALTSGVATGPAVLQSSGLYSLSSVVTVPSSSLGTQTYICNVNHKPSNTKVDKKVEPKSCDKTHTCPPCPAPELLGGPSVFLFPPKPKDTLMISRTPEVTCVVVDVSHEDPEVKFNWYVDGVEVHNAKTKPREEQYQSTYRVVSVLTVLHQDWLNGKEYKCKVSNKALPAPIEKTISKAKGQPREPQVYTLPPSREEMTKNQVSLVCLVKGFYPSDIAVEWESNGQPENNYKTTPPVLDSDGSFFLYSVLTVDKSRWQQGNVFSCSVMHEALHNHYTQKSLSLSPGK chain 2: RIQMTQSPSSLSASVGDRVTITCKSSQSLLYTSSQKNYLAWYQDKPGKAPKLLIYWASTRESGVPSRFSGSGSGTDFTLTISSLQPEDFATYYCQQYYAYPWTFGQGTKVEIKGQPKAAPSVTLFPPSSEELQANKATLVCYISDFYPGAVTVAWKADSSPVKAGVETTTPSKQSNNKYAAWSYLSLTPEQWKSHRSYSCQVTHEGSTVEKTVAPTEC", "values": [{"measurement": "% AB (LC1/LC2) (correct IgG BsAb assembly)", "setting": "[1]", "value": 100, "unit": "%"}, {"measurement": "% AA Homodimer (incorrect assembly)", "setting": "[2]", "value": 0, "unit": "%"}, {"measurement": "% AB (2x LC1) (incorrect assembly)", "setting": "[3]", "value": 0, "unit": "%"}, {"measurement": "% AB (2x LC2) (incorrect assembly)", "setting": "[4]", "value": 0, "unit": "%"}]}, {"protein": "MetMAb HC_7.8.60_B + MetMAb LC (IgG1) (protein) chain 1: EVQLVESGGGLVQPGGSLRLSCAASGYTFTSYWLHWVRKAPGKGLEWVGMIDPSNSDTRFNPEFKDRFTISADTSKNTAYLQMNSLRAEDTAVYYCATYRSYVTPLDYWGQGTLVTVSSASTKGPSVFPLAPSSKSTSGGTAALGCLVKDYFPEPVTVSWNSGALTSGVATGPAVLQSSGLYSLSSVVTVPSSSLGTQTYICNVNHKPSNTKVDKKVEPKSCDKTHTCPPCPAPELLGGPSVFLFPPKPKDTLMISRTPEVTCVVVDVSHEDPEVKFNWYVDGVEVHNAKTKPREEQYQSTYRVVSVLTVLHQDWLNGKEYKCKVSNKALPAPIEKTISKAKGQPRRPRVYTLPPSREEMTKNQVSLVCLVKGFYPSDIAVEWESNGQPENNYKTTPPVLDSDGSFFLYSVLTVDKSRWQQGNVFSCSVMHEALHNHYTQKSLSLSPGK chain 2: RIQMTQSPSSLSASVGDRVTITCKSSQSLLYTSSQKNYLAWYQDKPGKAPKLLIYWASTRESGVPSRFSGSGSGTDFTLTISSLQPEDFATYYCQQYYAYPWTFGQGTKVEIKGQPKAAPSVTLFPPSSEELQANKATLVCYISDFYPGAVTVAWKADSSPVKAGVETTTPSKQSNNKYAAWSYLSLTPEQWKSHRSYSCQVTHEGSTVEKTVAPTEC", "values": [{"measurement": "% AB (LC1/LC2) (correct IgG BsAb assembly)", "setting": "[5]", "value": 90.8, "unit": "%"}, {"measurement": "% AA Homodimer (incorrect assembly)", "setting": "[2]", "value": 0, "unit": "%"}, {"measurement": "% AB (2x LC1) (incorrect assembly)", "setting": "[6]", "value": 9.2, "unit": "%"}, {"measurement": "% AB (2x LC2) (incorrect assembly)", "setting": "[7]", "value": 0, "unit": "%"}]}, {"protein": "matuzumab HC_7.8.60_A + matuzumab LC (IgG1) (protein) chain 1: QVQLVQSGAEVKKPGASVKVSCKASGYTFTSHWMHWVRYAPGQGLEWIGEFNPSNGRTNYNEKFKSKATMTVDTSTNTAYMELSSLRSEDTAVYYCASRDYDYDGRYFDYWGRGTLVTVSSASTKGPSVFPLAPCSKSTSGGTAALGCLVKDYFPEPVTVSWNSGALTSGVHTFPAVLQSSGLYSLSSVVTVPSSSLGTQTYICNVNHKPSNTKVDKKVEPDSGDKTHTCPPCPAPELLGGPSVFLFPPKPKDTLMISRTPEVTCVVVDVSHEDPEVKFNWYVDGVEVHNAKTKPREEQYNSTYRVVSVLTVLHQDWLNGKEYKCKVSNKALPAPIEKTISKAKGQPREPQVYTLPPSREEMTDNQVSLTCLVKGFYPSDIAVEWESNGQPENNYKTTPPVLMSDGSFFLASKLTVDKSRWQQGNVFSCSVMHEALHNHYTQKSLSLSPGK chain 2: DIQMTQSPSSLSASVGDRVTITCSASSSVTYMYWYQRKPGDAPKLLIYDTSNLASGVPSRFSGSGSGTDYTFTISSLQPEDIATYYCQQWSSHIFTFGQGTKVEIKRTVAAPSVFIFPPSKEQLKSGTASVVCLLNNFYPREAKVQWKVDNALQSGNSQESVTEQDSKDSTYSLSSTLTLSKADYEKHKVYACEVTHQGLSSPVTKSFNRGEC", "values": [{"measurement": "% BB Homodimer (incorrect assembly)", "setting": "[8]", "value": 0, "unit": "%"}]}]}
